We go through one molecule from PMC10086252, “Tomato chlorosis virus CPm protein is a pathogenicity determinant and suppresses host local RNA silencing induced by single-stranded RNA”.

The data set has as its target CPm (minor coat protein) (Tomato chlorosis virus, UniProt A0A088FMK1 1-669). The data set can be described thus: EMSA; […], room temperature 30 min; […]; binding buffer, […]. Particulars: protein: recombinant; tags: His (pET28a); label: 5'-biotin; single strand. (A gel shift assay detects complexes by their altered migration in electrophoresis.)

B1: siRGFP-guide (single-stranded GFP RNA probe) (ssRNA)
RNA: UCAACAGGAUCGAGCUUAAGG
In the case of B1, the binding result is recorded as “no binding”.
